From the supplement of paper PMC9112550, “Optimization of the antimicrobial peptide Bac7 by deep mutational scanning” (BMC Biology, 2022)

Test system: Escherichia coli TOP10
Assay: shrunken log2 fold change of peptide-encoding DNA abundance (4.5 h post-induction vs induction); higher = less antimicrobial activity (less host growth inhibition)
Conditions: time post-induction: 4.5 h; library: site-saturation at positions 5, 18, 19, 20
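Further: peptides expressed intracellularly from a pBAD plasmid library in pooled LB shake-flask culture, induced with 0.3% L-arabinose, DNA abundance read by NGS, three biological replicates, DESeq2 with apeglm shrinkage.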

First: RRIRWRPPRLPRPRPRPESMPRP
Second: RRIRERPPRLPRPRPRPRCCPRP
The “shrunken log2 fold change” value of the first is higher: 0.636 for the first, -0.234 for the second.

First: RRIRKRPPRLPRPRPRPQDPPRP
Second: RRIRNRPPRLPRPRPRPMNNPRP
The “shrunken log2 fold change” value of the first is higher: 1.55 for the first, -0.749 for the second.

RRIRLRPPRLPRPRPRPEICPRP and RRIRCRPPRLPRPRPRPKCTPRP are within 0.2 log units of each other in “shrunken log2 fold change” value: -0.0881 for the first, -0.0914 for the second.

Going from RRIRRRPPRLPRPRPRPIANPRP to RRIRTRPPRLPRPRPRPHAVPRP, the “shrunken log2 fold change” value rises from -0.195 to 0.0205.

RRIRVRPPRLPRPRPRPMYWPRP and RRIRIRPPRLPRPRPRPYKGPRP are within 0.2 log units of each other in “shrunken log2 fold change” value: -0.0619 for the first, -0.018 for the second.

Going from RRIRLRPPRLPRPRPRPYRKPRP to RRIRCRPPRLPRPRPRPMASPRP, the “shrunken log2 fold change” value rises from -0.262 to -0.00968.

Going from RRIRCRPPRLPRPRPRPPNGPRP to RRIRGRPPRLPRPRPRPNAPPRP, the “shrunken log2 fold change” value rises from -0.0741 to 0.938.

Going from RRIRMRPPRLPRPRPRPSMAPRP to RRIRQRPPRLPRPRPRPNNDPRP, the “shrunken log2 fold change” value falls from 0.925 to -0.624.

Going from RRIRARPPRLPRPRPRPHEYPRP to RRIRWRPPRLPRPRPRPPFPPRP, the “shrunken log2 fold change” value rises from -0.0609 to 0.37.

First: RRIRGRPPRLPRPRPRPPCFPRP
Second: RRIRYRPPRLPRPRPRPERFPRP
The “shrunken log2 fold change” value of the first is higher: 0.456 for the first, 0.0461 for the second.

Compared with RRIRKRPPRLPRPRPRPVHKPRP, RRIRHRPPRLPRPRPRPNRMPRP is lower in “shrunken log2 fold change” value: 0.288 for the first, 0.0166 for the second.

RRIRWRPPRLPRPRPRPCWRPRP and RRIRARPPRLPRPRPRPHYTPRP are within 0.2 log units of each other in “shrunken log2 fold change” value: 0.0637 for the first, 0.203 for the second.

RRIRCRPPRLPRPRPRPTFYPRP and RRIRSRPPRLPRPRPRPTVSPRP are within 0.2 log units of each other in “shrunken log2 fold change” value: -0.237 for the first, -0.221 for the second.

First: RRIRNRPPRLPRPRPRPGRCPRP
Second: RRIRMRPPRLPRPRPRPLATPRP
The “shrunken log2 fold change” value of the first is lower: 0.143 for the first, 2.2 for the second.

RRIRIRPPRLPRPRPRPRQWPRP and RRIRPRPPRLPRPRPRPECTPRP are within 0.2 log units of each other in “shrunken log2 fold change” value: 0.159 for the first, 0.0119 for the second.

RRIRQRPPRLPRPRPRPDNMPRP and RRIRIRPPRLPRPRPRPQWMPRP are within 0.2 log units of each other in “shrunken log2 fold change” value: -0.163 for the first, -0.103 for the second.

Going from RRIRTRPPRLPRPRPRPDNIPRP to RRIRQRPPRLPRPRPRPQVPPRP, the “shrunken log2 fold change” value rises from -0.38 to -0.148.

Going from RRIRPRPPRLPRPRPRPMTYPRP to RRIRERPPRLPRPRPRPQPQPRP, the “shrunken log2 fold change” value rises from -0.437 to -0.0713.

First: RRIRMRPPRLPRPRPRPIIWPRP
Second: RRIRWRPPRLPRPRPRPECPPRP
The “shrunken log2 fold change” value of the first is lower: -0.0321 for the first, 0.341 for the second.

First: RRIRKRPPRLPRPRPRPLGKPRP
Second: RRIRFRPPRLPRPRPRPWGVPRP
The “shrunken log2 fold change” value of the first is higher: 0.39 for the first, -0.517 for the second.

First: RRIRYRPPRLPRPRPRPEPQPRP
Second: RRIRLRPPRLPRPRPRPRNQPRP
The “shrunken log2 fold change” value of the first is lower: -0.777 for the first, -0.204 for the second.

Going from RRIRCRPPRLPRPRPRPLAAPRP to RRIRIRPPRLPRPRPRPESQPRP, the “shrunken log2 fold change” value falls from 0.351 to 0.0553.

Going from RRIRERPPRLPRPRPRPHDQPRP to RRIRARPPRLPRPRPRPCAEPRP, the “shrunken log2 fold change” value rises from 0.0804 to 0.977.

First: RRIRKRPPRLPRPRPRPASKPRP
Second: RRIRARPPRLPRPRPRPNWKPRP
The “shrunken log2 fold change” value of the first is lower: -0.25 for the first, -0.0233 for the second.

Going from RRIRYRPPRLPRPRPRPGQVPRP to RRIRCRPPRLPRPRPRPPNPPRP, the “shrunken log2 fold change” value rises from -0.0686 to 0.761.

RRIRWRPPRLPRPRPRPQNPPRP and RRIRYRPPRLPRPRPRPAPNPRP are within 0.2 log units of each other in “shrunken log2 fold change” value: -0.0448 for the first, -0.01 for the second.

Compared with RRIRWRPPRLPRPRPRPMFCPRP, RRIRTRPPRLPRPRPRPSMFPRP is lower in “shrunken log2 fold change” value: -0.0733 for the first, -0.46 for the second.

Compared with RRIRPRPPRLPRPRPRPAKRPRP, RRIRCRPPRLPRPRPRPAATPRP is higher in “shrunken log2 fold change” value: 0.035 for the first, 0.776 for the second.

RRIRSRPPRLPRPRPRPTLHPRP and RRIRMRPPRLPRPRPRPHCKPRP are within 0.2 log units of each other in “shrunken log2 fold change” value: 0.147 for the first, 0.00214 for the second.

RRIRFRPPRLPRPRPRPRSEPRP and RRIRERPPRLPRPRPRPFKQPRP are within 0.2 log units of each other in “shrunken log2 fold change” value: 0.11 for the first, -0.0138 for the second.

Going from RRIRCRPPRLPRPRPRPGIMPRP to RRIRARPPRLPRPRPRPQNQPRP, the “shrunken log2 fold change” value rises from -0.594 to -0.141.

Compared with RRIRERPPRLPRPRPRPKMVPRP, RRIRNRPPRLPRPRPRPYTHPRP is lower in “shrunken log2 fold change” value: -0.22 for the first, -1.12 for the second.

RRIRMRPPRLPRPRPRPIIIPRP and RRIRNRPPRLPRPRPRPLYNPRP are within 0.2 log units of each other in “shrunken log2 fold change” value: -0.166 for the first, -0.0372 for the second.

Going from RRIRKRPPRLPRPRPRPSCEPRP to RRIRMRPPRLPRPRPRPKYYPRP, the “shrunken log2 fold change” value falls from 0.401 to -0.0662.

RRIRDRPPRLPRPRPRPQVAPRP and RRIRKRPPRLPRPRPRPGQLPRP are within 0.2 log units of each other in “shrunken log2 fold change” value: 0.166 for the first, 0.236 for the second.

First: RRIRFRPPRLPRPRPRPSEHPRP
Second: RRIRSRPPRLPRPRPRPDPSPRP
The “shrunken log2 fold change” value of the first is lower: -0.323 for the first, 0.0173 for the second.

Going from RRIRQRPPRLPRPRPRPNRPPRP to RRIRGRPPRLPRPRPRPTKLPRP, the “shrunken log2 fold change” value rises from -0.056 to 0.38.

RRIRGRPPRLPRPRPRPCAMPRP was tested, and the “shrunken log2 fold change” value was -0.102.
